Legend:
Assay in all cases: EMSA
Conditions in all cases: LightShift Chemiluminescent EMSA kit protocol; 20 fmol biotin-labeled DNA, 4 pmol protein (where stated); buffer, salt, pH and temperature not stated
OsWRKY121 (Oryza sativa) = target: T1, OsWRKY121 (Oryza sativa) (UniProt Q75KW2)
T1 sequence: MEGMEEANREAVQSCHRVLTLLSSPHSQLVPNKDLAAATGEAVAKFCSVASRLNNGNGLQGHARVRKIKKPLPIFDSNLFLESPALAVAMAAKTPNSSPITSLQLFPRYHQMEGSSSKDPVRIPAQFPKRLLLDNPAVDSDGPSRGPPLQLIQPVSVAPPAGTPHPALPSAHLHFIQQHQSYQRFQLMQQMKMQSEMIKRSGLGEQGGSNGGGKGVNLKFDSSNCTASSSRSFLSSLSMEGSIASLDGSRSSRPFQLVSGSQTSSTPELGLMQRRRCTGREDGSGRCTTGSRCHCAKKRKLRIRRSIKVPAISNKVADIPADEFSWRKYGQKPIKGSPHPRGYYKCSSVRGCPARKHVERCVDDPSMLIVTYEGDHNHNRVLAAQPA

OsWRKY71 (Oryza sativa) = OsWRKY71 (Oryza sativa) (UniProt Q6QHD1)
[1] = system: GmRAV1 (Glycine max), ORF:a1ee9a9b
GmRAV1 (Glycine max), ORF:a1ee9a9b, sequence (chain, as listed by the source): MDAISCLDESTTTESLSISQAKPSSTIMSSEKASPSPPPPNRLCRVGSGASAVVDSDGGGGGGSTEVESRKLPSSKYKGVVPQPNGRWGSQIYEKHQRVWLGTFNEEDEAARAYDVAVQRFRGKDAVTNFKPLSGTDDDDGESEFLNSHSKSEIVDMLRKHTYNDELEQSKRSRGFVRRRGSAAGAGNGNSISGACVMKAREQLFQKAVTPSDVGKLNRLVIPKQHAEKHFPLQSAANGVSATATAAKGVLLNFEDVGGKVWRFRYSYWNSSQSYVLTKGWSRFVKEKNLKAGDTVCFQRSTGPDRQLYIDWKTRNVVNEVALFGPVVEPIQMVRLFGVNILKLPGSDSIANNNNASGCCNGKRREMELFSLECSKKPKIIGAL

OsWRKY71 (Oryza sativa), sequence (Q6QHD1 whole entry): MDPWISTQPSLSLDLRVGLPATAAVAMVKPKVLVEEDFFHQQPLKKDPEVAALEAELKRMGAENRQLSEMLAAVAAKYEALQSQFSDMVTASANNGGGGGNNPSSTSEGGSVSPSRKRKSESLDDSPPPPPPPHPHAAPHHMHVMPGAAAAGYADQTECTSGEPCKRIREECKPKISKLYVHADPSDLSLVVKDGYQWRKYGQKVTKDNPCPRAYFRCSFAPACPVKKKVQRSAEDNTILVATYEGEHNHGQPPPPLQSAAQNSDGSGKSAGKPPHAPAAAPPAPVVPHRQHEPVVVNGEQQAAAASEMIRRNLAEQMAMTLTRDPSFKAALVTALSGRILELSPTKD

AACAGCTTGTTGACTGGCTCCCTAGAGCTTTTTGTAAGTTGATCATCGAAGTAGCTAGTTCTCTTCACTTATCAGTCATCACTGTTCTATGTTCTATCTGCATTTTCCTTGATTTTGTACTTTTCCTGAACGAAAGGACAATCCTTAGCCATCATAATGCTATGATCGACTTATTCTGAAGTCATCCGGCCTCGATCCT (double strand) [OsNF-YC4 promoter 198-bp]
binding (OsWRKY121 (Oryza sativa)): binds

ACCAGAGTTCTTTTTCCCCCTCTTCTACATAAACGAAAACAGCTTGTTGACTGGCTCCCTAGAGCTTTTTGTAAGTTGATCATCGAAGTAGCTAGTTCTCTTCACTTATCAGTCATCACTGTTCTATGTTCTATCTGCATTTTCCTTGATTTTGTACTTTTCCTGAACGAAAGGACAATCCTTAGCCATCATAATGCTATGATCGACTTATTCTGAAGTCATCCGGCCTCGATCCTCTTTTGT (double strand) [OsNF-YC4 promoter P5]
binding (OsWRKY71 (Oryza sativa)): binds | binding (OsWRKY121 (Oryza sativa)): binds

AGCATTATGATGGCTAAGGATTGTCCTTTCGTTCAGGAAAAGTACAAAATCAAGGAAAATGCAGA (double strand) [OsNF-YC4 promoter P4]
binding (OsWRKY71 (Oryza sativa)): no binding

CCCTAATATTGTGAACAAACTTTGTTGGTAATGTAAAAAAAATTAAAAGAAACAAGATTAAATTACGTATTTAATAATTTAAGATTAATGTTGTTTAATTTGATTTTTTAAATATTTATCTTTCTTTTGAATTTGATTCTTTAGTTCAC (double strand) [GmNF-YC4-1 promoter P6]
binding [1]: binds

GATTAATAATATCCCTAATATTGTGAACAAACTTTGTTGGTAATGTAAAAAAAATTAAAAGAAACAAGATTAAATTACGTATTTAATAATTTAAGATTAA (double strand) [GmNF-YC4-1 promoter P3]
binding [1]: binds

GGATTACATTGAGTAATGCACATAAATTATTATAAACCTTCCATATTTGTCTTCAACAAATAATCCTAAAAATTAATGTTAACAAAAACTGACCACCTATGTTTTTAAATTAAGAAAGCATG (double strand) [GmNF-YC4-1 promoter P2]
binding [1]: binds

GGCATTGACATGGATGGATGGAACACCCTCATAGTCACATGCCACAACAGAGTAACGCTAAACAAAATGTATTAACAAAAACTATAGGATCATGCTTTCTTAATTTAAAAACATAGG (double strand) [GmNF-YC4-1 promoter P1]
binding [1]: no binding

GGCATTGACATGGATGGATGGAACACCCTCATAGTCACATGCCACAACAGAGTAACGCTAAACAAAATGTATTAACAAAAACTATAGGATCATGCTTTCTTAATTTAAAAACATAGGTGGTCAGTTTTTGTTAACATTAATTTTTAGGATTATTTGTTGAAGACAAATATGGAAGGTTTATAATAATTTATGTGCATTACTCAATGTAATCC (double strand) [GmNF-YC4-1 promoter P5]
binding [1]: binds

TAAAAGAAACAAGATTAAATTACGTATTTAATAATTTAAGATTAATGTTGTTTAATTTGATTTTTTAAATATTTATCTTTCTTTTGAATTTGATTCTTTAGTTCACTTAAG (double strand) [GmNF-YC4-1 promoter P4]
binding [1]: no binding

TCCTGAACGAAAGGACAATCCTTAGCCATCATAATGCTATGATCGACTTATTCTGAAGTCATCCGGCCTCGATCCTCTTTTGT (double strand) [OsNF-YC4 promoter P3]
binding (OsWRKY71 (Oryza sativa)): no binding | binding (OsWRKY121 (Oryza sativa)): no binding

TGGCTCCCTAGAGCTTTTTGTAAGTTGATCATCGAAGTAGCTAGTTCTCTTCACTTATCAGTCATCACTGTTCTATGTTCTATCTGCATTTTCCTTGATTTTGTACTTTTCCTGAACGAAAGGACAATCCTT (double strand) [OsNF-YC4 promoter P2]
binding (OsWRKY71 (Oryza sativa)): binds | binding (OsWRKY121 (Oryza sativa)): binds
